Legend:
[1] = biological target: MfPC α subunit expressed and purified alone (pET28a, N-terminal hexa-histidine tag) (Methylobacillus flagellatus); experiment: SEC; analytical gel filtration of separately purified MfPC α and β subunits, alone and mixed in 1:2, 1:1 or 2:1 molar ratios; peak fractions on SDS-PAGE
[2] = biological target: Methylobacillus flagellatus pyruvate carboxylase (MfPC) α subunit, N-terminal hexa-histidine tag, co-expressed with the β subunit (Methylobacillus flagellatus); experiment: SEC; gel filtration of two-subunit PCs purified from E. coli co-expression, with Coomassie-stained SDS-PAGE of the purified complexes and of known amounts of α and β subunits; also with an extra plasmid expressing only α
[3] = biological target: Pseudomonas aeruginosa pyruvate carboxylase (PaPC) α subunit (Pseudomonas aeruginosa); experiment: AUC; sedimentation velocity, 0.5 mg/ml, 20 °C, 42,000 r.p.m., 20 mM Tris pH 8.0, 150 mM NaCl, continuous c(s) distribution (SEDFIT)
[4] = biological target: MfPC α subunit with the B sub-domain of BC (residues 131–201) replaced by a Gly–Ser–Ser–Gly linker (Methylobacillus flagellatus); experiment: crystal structure; mutant MfPC (B domain deletion in α; K419A, E421A, E422A in β), 3.0 Å, space group R32, one α2β4 oligomer in the asymmetric unit; sitting drop, 20 °C, 2.5 mM pyruvate, 19% PEG3350, 2% tacsimate pH 6.0, 3% ethanol
[5] = biological target: MfPC β subunit with the surface entropy reduction mutations K419A, E421A and E422A, untagged (Methylobacillus flagellatus); experiment: as above
[6] = biological target: Methylobacillus flagellatus pyruvate carboxylase (MfPC) α subunit, N-terminal hexa-histidine tag, co-expressed with the β subunit (Methylobacillus flagellatus); experiment: crystal structure; 'wild-type' MfPC (K419A, E421A, E422A in β), 6.6 Å, space group P3(1)21, one α and two β in the asymmetric unit, α2β4 by a crystallographic two-fold axis; 2.5 mM ATP and 2.5 mM pyruvate, 1.3 M ammonium sulfate, 0.1 M sodium citrate pH 6.0
[7] = biological target: MfPC β subunit with the surface entropy reduction mutations K419A, E421A and E422A, untagged (Methylobacillus flagellatus); experiment: as above
[8] = biological target: T1, SaPC (single-chain pyruvate carboxylase) (Staphylococcus aureus, UniProt A0A0H3JRU9); experiment: malate dehydrogenase-coupled PC activity with and without acetyl-CoA; assay type: biochemical; conditions: allosteric activator
T1 construct: gene pycA; single-chain homo-tetramer, ~570 kDa by AUC; expression not described here
T1 sequence (A0A0H3JRU9 1-1150): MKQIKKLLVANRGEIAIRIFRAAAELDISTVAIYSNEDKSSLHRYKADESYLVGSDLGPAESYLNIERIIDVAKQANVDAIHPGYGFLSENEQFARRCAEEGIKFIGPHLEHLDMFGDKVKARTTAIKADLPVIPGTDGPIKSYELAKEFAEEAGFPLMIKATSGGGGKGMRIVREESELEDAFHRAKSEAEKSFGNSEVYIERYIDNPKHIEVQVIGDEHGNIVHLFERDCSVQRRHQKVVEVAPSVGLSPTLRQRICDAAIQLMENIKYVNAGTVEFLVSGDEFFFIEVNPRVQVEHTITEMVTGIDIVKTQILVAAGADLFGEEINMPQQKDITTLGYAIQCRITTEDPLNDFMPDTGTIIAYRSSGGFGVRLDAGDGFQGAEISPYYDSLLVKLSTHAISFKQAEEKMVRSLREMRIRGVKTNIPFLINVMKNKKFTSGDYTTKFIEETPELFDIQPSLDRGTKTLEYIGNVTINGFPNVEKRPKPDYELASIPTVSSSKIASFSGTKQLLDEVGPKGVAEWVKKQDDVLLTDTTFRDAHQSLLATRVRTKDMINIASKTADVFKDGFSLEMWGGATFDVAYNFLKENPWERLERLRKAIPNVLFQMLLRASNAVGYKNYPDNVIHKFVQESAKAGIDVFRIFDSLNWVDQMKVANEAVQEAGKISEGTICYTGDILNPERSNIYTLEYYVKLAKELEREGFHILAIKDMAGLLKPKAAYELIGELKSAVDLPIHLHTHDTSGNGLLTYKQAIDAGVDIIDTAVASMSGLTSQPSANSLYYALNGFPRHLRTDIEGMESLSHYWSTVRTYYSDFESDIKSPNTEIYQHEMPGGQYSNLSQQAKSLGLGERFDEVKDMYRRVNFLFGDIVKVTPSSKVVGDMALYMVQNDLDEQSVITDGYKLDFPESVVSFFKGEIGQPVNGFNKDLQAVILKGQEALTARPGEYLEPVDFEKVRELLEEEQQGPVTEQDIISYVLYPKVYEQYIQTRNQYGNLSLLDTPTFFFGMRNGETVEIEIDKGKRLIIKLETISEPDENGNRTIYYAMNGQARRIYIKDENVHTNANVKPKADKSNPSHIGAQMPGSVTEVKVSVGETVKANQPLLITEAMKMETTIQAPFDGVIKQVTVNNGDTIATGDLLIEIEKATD

[9] = biological target: MfPC β subunit K581A mutant, purified alone (Methylobacillus flagellatus)
[10] = biological target: the molecule itself; experiment: AUC; sedimentation velocity, 0.5 mg/ml, 20 °C, 42,000 r.p.m., 20 mM Tris pH 8.0, 150 mM NaCl, continuous c(s) distribution (SEDFIT)

In the case of “MfPC β subunit expressed and purified alone (pET28a, N-terminal hexa-histidine tag) (enzyme)”, the stoichiometry N [1] is reported as 2 β per α.

In the case of “Methylobacillus flagellatus pyruvate carboxylase (MfPC) β subunit, untagged, co-expressed with the α subunit (enzyme)”, the stoichiometry N [2] is reported as 2 β per α.

For “Pseudomonas aeruginosa pyruvate carboxylase (PaPC) β subunit (enzyme)”, the stoichiometry N [3] was 2 β per α.

For “MfPC β subunit with the surface entropy reduction mutations K419A, E421A and E422A, untagged (enzyme)”, the stoichiometry N [4] was 2 β per α, the stoichiometry N [5] was 2 and the stoichiometry N [6] was 2 β per α. For the same molecule, the stoichiometry N [7] was 2.

For `CC(=O)SCCNC(=O)CCNC(=O)[C@H](O)C(C)(C)COP(=O)(O)OP(=O)(O)OC[C@H]1O[C@@H](n2cnc3c(N)ncnc32)[C@H](O)[C@@H]1OP(=O)(O)O` [acetyl-CoA], the activation [8] was “When acetyl-CoA is present, SaPC activity becomes comparable to those of the two-subunit PCs”.

Work on “MfPC β subunit A49T mutant, purified alone (enzyme)” yielded a pyruvate carboxylase activity of hybrid holoenzymes (A49T and K581A β subunits mixed in a 1:1 ratio, then α subunit added), against the wild-type holoenzyme (% of wild-type activity) [9] of 29.

B1: Staphylococcus aureus pyruvate carboxylase (SaPC), single-chain (enzyme, UniProt A0A0H3JRU9 1-1150, looked up)
chain: MKQIKKLLVANRGEIAIRIFRAAAELDISTVAIYSNEDKSSLHRYKADESYLVGSDLGPAESYLNIERIIDVAKQANVDAIHPGYGFLSENEQFARRCAEEGIKFIGPHLEHLDMFGDKVKARTTAIKADLPVIPGTDGPIKSYELAKEFAEEAGFPLMIKATSGGGGKGMRIVREESELEDAFHRAKSEAEKSFGNSEVYIERYIDNPKHIEVQVIGDEHGNIVHLFERDCSVQRRHQKVVEVAPSVGLSPTLRQRICDAAIQLMENIKYVNAGTVEFLVSGDEFFFIEVNPRVQVEHTITEMVTGIDIVKTQILVAAGADLFGEEINMPQQKDITTLGYAIQCRITTEDPLNDFMPDTGTIIAYRSSGGFGVRLDAGDGFQGAEISPYYDSLLVKLSTHAISFKQAEEKMVRSLREMRIRGVKTNIPFLINVMKNKKFTSGDYTTKFIEETPELFDIQPSLDRGTKTLEYIGNVTINGFPNVEKRPKPDYELASIPTVSSSKIASFSGTKQLLDEVGPKGVAEWVKKQDDVLLTDTTFRDAHQSLLATRVRTKDMINIASKTADVFKDGFSLEMWGGATFDVAYNFLKENPWERLERLRKAIPNVLFQMLLRASNAVGYKNYPDNVIHKFVQESAKAGIDVFRIFDSLNWVDQMKVANEAVQEAGKISEGTICYTGDILNPERSNIYTLEYYVKLAKELEREGFHILAIKDMAGLLKPKAAYELIGELKSAVDLPIHLHTHDTSGNGLLTYKQAIDAGVDIIDTAVASMSGLTSQPSANSLYYALNGFPRHLRTDIEGMESLSHYWSTVRTYYSDFESDIKSPNTEIYQHEMPGGQYSNLSQQAKSLGLGERFDEVKDMYRRVNFLFGDIVKVTPSSKVVGDMALYMVQNDLDEQSVITDGYKLDFPESVVSFFKGEIGQPVNGFNKDLQAVILKGQEALTARPGEYLEPVDFEKVRELLEEEQQGPVTEQDIISYVLYPKVYEQYIQTRNQYGNLSLLDTPTFFFGMRNGETVEIEIDKGKRLIIKLETISEPDENGNRTIYYAMNGQARRIYIKDENVHTNANVKPKADKSNPSHIGAQMPGSVTEVKVSVGETVKANQPLLITEAMKMETTIQAPFDGVIKQVTVNNGDTIATGDLLIEIEKATD
notes: single-chain pyruvate carboxylase, Staphylococcus aureus; Used as a control in the ultracentrifugation
With B1 the “stoichiometry N” value [10] was 4.
